US20150125515A1, “NOVEL SP-B & SP-C PEPTIDES, SYNTHETIC LUNG SURFACTANTS, AND USE THEREOF” (UNIVERSITY OF ROCHESTER, priority 2012, published 2015)
Bridges are numbered along the chain shown (N, C = ends). Roman numbers before positions name the chains, in order. Where no end group is shown, it is not given here.

Assay: Adsorption of surfactant compositions to the air-water interface (surface pressure vs time, Wilhelmy method)
Type: physicochemical
Conditions: 3% by weight peptide with 5:3:2 (molar ratio) DPPC:POPC:POPG
Method: Surface activity of synthetic peptide/lipid surfactant compositions was assessed by either or both of the following methods: (1) measurement of the adsorption of surfactant compositions to the air-water interface as a function of time, and (2) measurement of overall dynamic surface activity on a pulsating bubble surfactometer (general methodological details of these two experimental techniques are described by Notter, Lung Surfactants: Basic Science and Clinical Applications, Marcel Dekker, Inc, New York (2000), which is hereby incorporated by reference in its entirety).
In adsorption studies, a given surfactant mixture was injected at time zero beneath the surface of a stirred surfactant-free subphase, and surface pressure (defined as surface tension lowering below that of the pure subphase) was measured as a function of time from the force on a hanging platinum slide (“Wilhelmy” method). By definition, higher surface pressure corresponds to lower surface tension (Notter, Lung Surfactants: Basic Science and Clinical Applications, Marcel Dekker, Inc, New York (2000)).

Substance | adsorption compared with lung surfactant (CLSE in Table 7)
FGIPFFPVHLKRLLILLLL-CONH2 (FGIPFFPVHLKRLLILLLL-NH2) [Mini-SPCff_2_leu] | equaling that of lung surfactant
LGIPCFPSSLKRLLIIVVV-CONH2 (chain 1 LGIPCFPSSLKRLLIIVVV-NH2; chain 2 LGIPCFPSSLKRLLIIVVV-NH2; disulfide I:5-II:5 (inferred)) [Mini-C dog cf_cys5 dimer] | equaling that of lung surfactant
LGIPFFPSSLKRLLIILLL-CONH2 (LGIPFFPSSLKRLLIILLL-NH2) [Mini-SPCff_dog_leu] | equaling that of lung surfactant
LGIPFFPSSLKRLLIIVVV-CONH2 (LGIPFFPSSLKRLLIIVVV-NH2) [Mini-SPCff_dog] | equaling that of lung surfactant

Same assay, conditions: peptide 3% by weight with synthetic ester linked phospholipids 5:3:2 DPPC:POPC:POPG

Substance | adsorption, result in words
GIPFFPVHLKRLLIKVVVEELIVKVIVGALLMGL (SP-C FF Ion Lock2 K15/E19;E20/K24) [SP-C ion-lock2ff] | substantial rapid adsorption
IPSSPVHLKRLKLLKLLLEEILLKILGALLMGL (SP-C33SS Ion Lock2 K15/E19;E20/K24) [SP-C33ss_ion2] | substantial rapid adsorption
